Assay results taken from patent US20050003420, “Recycled mutagenesis of restriction endonuclease toward enhanced catalytic activity” (published 2005).
Where a chain is given by its changes, count along the chain named.

How the values were obtained:
[1] = target: T1, BsoBI D246E (UniProt P70985 P70985:1-323, D246E); assay: filter; 4 mM CaCl2; ±20000; conditions: chain copies: 2 inferred; label: 33P 5' end
T1 sequence: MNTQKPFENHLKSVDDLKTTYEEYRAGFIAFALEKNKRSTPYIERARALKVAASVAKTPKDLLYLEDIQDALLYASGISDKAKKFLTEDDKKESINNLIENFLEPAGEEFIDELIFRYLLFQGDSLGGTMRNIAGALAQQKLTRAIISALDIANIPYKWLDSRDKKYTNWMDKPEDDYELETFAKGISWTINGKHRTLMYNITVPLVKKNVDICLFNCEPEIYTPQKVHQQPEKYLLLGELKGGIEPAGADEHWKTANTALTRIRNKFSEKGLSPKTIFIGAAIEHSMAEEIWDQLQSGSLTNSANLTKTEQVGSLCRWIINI
Procedure: (§1) The binding condition was in 10 mM Tris-HCl, pH 7.5, 100 mM NaCl, 50 mg/ml BSA, 4 mM CaCl₂ in […] volume. The labeled DNA substrates were diluted to a final scintillation count of 1000-5000 cpm and varying amount of BsoBI or each variant was added. Following incubation at room temperature for 10 min, the bound complex was loaded onto Micropure EZ column (Millipore Corporation, Bedford, Mass.) and spun at 16K g for 1 min. Protein and protein:DNA complexes are bound to the membrane in the Micropure EZ column and only the free unbound DNA is in the flow-through fraction. 180 μl of the flow-through liquid was immediately transferred to scintillation counting vials filled with 1.5 ml OPTI-FLUOR for aqueous samples (Packard, Meriden, Conn.). The radioactivity count from the sample without BsoBI is F₀, and the radioactivity count from sample with BsoBI or each variant is F. The apparent Kd value is calculated from F/F₀ and the BsoBI concentration [E] according to equation [1]. F/F₀=a [Kd/([E]+Kd)]+b a and b are equation fitting parameters, where b is the non-specific flow-through, and a is the maximum change amplitude.
(§2) DNA binding properties of BsoBI endonuclease and variants: To obtain reproducible BsoBI:DNA binding data, a filter binding assay utilizing a microcentrifuge filter was developed. […]

[2] = target: T2, BsoBI restriction endonuclease (UniProt P70985 P70985:1-323); assay: filter; 4 mM CaCl2, 100 mM NaCl, pH 7.5, room temp; ±2.0; conditions: tags: untagged, expressed from pRRS-bsoBIR in E. coli ER2683; chain copies: 2 inferred; label: 33P 5' end
T2 sequence: T1 sequence with E246D
Procedure: as §1, §2

[3] = target: T3, BsoBI D246C (UniProt P70985 P70985:1-323, D246C); assay: filter; 4 mM CaCl2; ±11; conditions: chain copies: 2 inferred; label: 33P 5' end
T3 sequence: T1 sequence with E246C
Procedure: as §1, §2

[4] = target: T4, BsoBI D246R (UniProt P70985 P70985:1-323, D246R); assay: filter; 4 mM CaCl2; ±20; conditions: chain copies: 2 inferred; label: 33P 5' end
T4 sequence: T1 sequence with E246R
Procedure: as §1, §2

[5] = target: T5, BsoBI D246A (UniProt P70985 P70985:1-323, D246A); assay: filter; 4 mM CaCl2; ±40; conditions: chain copies: 2 inferred; label: 33P 5' end
T5 sequence: T1 sequence with E246A
Procedure: as §1, §2

[6] = target: T6, BsoBI D246Y (UniProt P70985 P70985:1-323, D246Y); assay: filter; 4 mM CaCl2; ±16; conditions: chain copies: 2 inferred; label: 33P 5' end
T6 sequence: T1 sequence with E246Y
Procedure: as §1, §2

[7] = target: T6, BsoBI D246Y; assay: filter; 4 mM CaCl2; ±2; conditions: chain copies: 2 inferred; label: 33P 5' end
Procedure: as §1, §2

[8] = target: T4, BsoBI D246R; assay: filter; 4 mM CaCl2; ±3.5; conditions: chain copies: 2 inferred; label: 33P 5' end
Procedure: as §1, §2

[9] = target: T3, BsoBI D246C; assay: filter; 4 mM CaCl2; ±4; conditions: chain copies: 2 inferred; label: 33P 5' end
Procedure: as §1
(§3) DNA binding properties of BsoBI endonuclease and variants: To obtain reproducible BsoBI:DNA binding data, a filter binding assay utilizing a microcentrifuge filter was developed. In the control experiment, more than 99% of the wt BsoBI endonuclease was retained on the filter of the spin column. When labeled duplex DNA was loaded onto the membrane in the absence of protein, more than 95% of the DNA passed through the column. […] The heat-treatment step removed approximately 80% of E. coli proteins. The filter-binding assay was performed for wt BsoBI endonuclease and variants D246A, D246C, D246E, D246R, and D246Y in the presence of Ca⁺⁺. The inclusion of Ca⁺⁺ in the binding buffer stabilizes the protein:DNA complex in DNA mobility shift assays (data not shown) and it was presumed that Ca⁺⁺ does the same in the filter binding assay.

[10] = target: T5, BsoBI D246A; assay: filter; 4 mM CaCl2; ±0.6; conditions: chain copies: 2 inferred; label: 33P 5' end
Procedure: as §1, §2

[11] = target: T1, BsoBI D246E; assay: filter; 4 mM CaCl2; ±683; conditions: chain copies: 2 inferred; label: 33P 5' end
Procedure: as §1, §2

[12] = target: T2, BsoBI restriction endonuclease; assay: filter; 4 mM CaCl2, 100 mM NaCl, pH 7.5, room temp; ±1.2; conditions: tags: untagged, expressed from pRRS-bsoBIR in E. coli ER2683; chain copies: 2 inferred; label: 33P 5' end
Procedure: as §1, §2

[13] = target: T1, BsoBI D246E; assay: filter; 4 mM CaCl2; ±3347; conditions: chain copies: 2 inferred; label: 33P 5' end
Procedure: as §1, §2

[14] = target: T4, BsoBI D246R; assay: filter; 4 mM CaCl2; ±4.9; increased non-specific binding; conditions: chain copies: 2 inferred; label: 33P 5' end
Procedure: as §1, §2

[15] = target: T5, BsoBI D246A; assay: filter; 4 mM CaCl2; ±97; conditions: chain copies: 2 inferred; label: 33P 5' end
Procedure: as §1, §2

[16] = target: T6, BsoBI D246Y; assay: filter; 4 mM CaCl2; ±67; conditions: chain copies: 2 inferred; label: 33P 5' end
Procedure: as §1, §2

[17] = target: T3, BsoBI D246C; assay: filter; 4 mM CaCl2; ±10; conditions: chain copies: 2 inferred; label: 33P 5' end
Procedure: as §1, §2

[18] = target: T2, BsoBI restriction endonuclease; assay: filter; 4 mM CaCl2, non-specific control; ±143; conditions: tags: untagged, expressed from pRRS-bsoBIR in E. coli ER2683; chain copies: 2 inferred; label: 33P 5' end
Procedure: as §1, §2

[19] = target: T2, BsoBI restriction endonuclease; assay: filter; 4 mM CaCl2, 100 mM NaCl, pH 7.5, room temp; ±0.9; conditions: tags: untagged, expressed from pRRS-bsoBIR in E. coli ER2683; chain copies: 2 inferred; label: 33P 5' end
Procedure: as §1, §2

[20] = target: T4, BsoBI D246R; assay: filter; 4 mM CaCl2; ±4.6; conditions: chain copies: 2 inferred; label: 33P 5' end
Procedure: as §1, §2

[21] = target: T3, BsoBI D246C; assay: filter; 4 mM CaCl2; ±9.8; conditions: chain copies: 2 inferred; label: 33P 5' end
Procedure: as §1, §2

[22] = target: T1, BsoBI D246E; assay: filter; 4 mM CaCl2; ±1578; conditions: chain copies: 2 inferred; label: 33P 5' end
Procedure: as §1, §2

[23] = target: T6, BsoBI D246Y; assay: filter; 4 mM CaCl2; ±4; conditions: chain copies: 2 inferred; label: 33P 5' end
Procedure: as §1, §3

[24] = target: T5, BsoBI D246A; assay: filter; 4 mM CaCl2; ±4; conditions: chain copies: 2 inferred; label: 33P 5' end
Procedure: as §1, §3

B1: S1 (CTCGAG) (dsDNA)
DNA 1: GAGTGTTATGGGTAGCTCGAGTGAAGTGGGAATATC
DNA 2: GATATTCCCACTTCACTCGAGCTACCCATAACACTC
**Q.** Which Kd [1] does the source give for B1 here?
**A.** Its Kd is 80 nM.

**Q.** And the Kd [2]?
**A.** Its Kd is 0.0092 nM.

**Q.** And the Kd [3]?
**A.** The Kd was 0.074 nM.

**Q.** And the Kd [4]?
**A.** The Kd was 0.089 nM.

**Q.** What about the Kd [5] of the same binder?
**A.** Its Kd is 0.219 nM.

**Q.** What about the Kd [6] of the same binder?
**A.** The Kd was 0.132 nM.

B2: S2 (CCCGGG) (dsDNA)
DNA 1: B1 DNA 1 with T17C, A20G
DNA 2: B1 DNA 2 with T17C, A20G
**Q.** B2 was tested. Which Kd [7] did it give?
**A.** The Kd was 0.041 nM.

**Q.** What about the Kd [8] of the same binder?
**A.** Its Kd is 0.038 nM.

**Q.** What about the Kd [9] of the same binder?
**A.** The Kd was 0.03 nM.

**Q.** And the Kd [10]?
**A.** The Kd was 0.0031 nM.

**Q.** What about the Kd [11] of the same binder?
**A.** The Kd was 2.84 nM.

**Q.** And the Kd [12]?
**A.** Its Kd is 0.0066 nM.

B3: N (CATAAC, non-specific) (dsDNA)
DNA 1: B1 DNA 1 with T17A, C18T, G19A, G21C
DNA 2: B1 DNA 2 with C16G, C18T, G19A, A20T
**Q.** Which Kd [13] does the source give for B3 here?
**A.** Its Kd is 93.2 nM.

**Q.** What about the Kd [14] of the same binder?
**A.** Its Kd is 0.064 nM.

**Q.** And the Kd [15]?
**A.** The Kd was 0.578 nM.

**Q.** And the Kd [16]?
**A.** Its Kd is 0.449 nM.

**Q.** What about the Kd [17] of the same binder?
**A.** The Kd was 0.142 nM.

**Q.** What about the Kd [18] of the same binder?
**A.** The Kd was 1.45 nM.

B4: S3 (CTCGGG/CCCGAG) (dsDNA)
DNA 1: B1 DNA 1 with A20G
DNA 2: B1 DNA 2 with T17C
**Q.** Which results are given for B4?
**A.** Kd [19]: 0.0053 nM; Kd [20]: 0.039 nM; Kd [21]: 0.064 nM; Kd [22]: 42.1 nM; Kd [23]: 0.057 nM; Kd [24]: 0.017 nM
